Measurements reported in the supplement of paper PMC9170038.

System: MS2 coat protein
Assay: apparent KD of MS2 coat protein; designed switch direction (-1 OFF switch, 1 ON switch): -1; higher = weaker reporter binding
Method in brief: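 Designed RNA switches with common flanks were transcribed on Illumina chips by stalled E. coli RNA polymerase and titrated with SNAP-549-labelled MS2 coat protein, from 0.7 or 1.5 nM doubling to 3 µM, in Tris-HCl pH 7.5 buffer with KCl, MgCl2, BSA, DTT, tRNA and Tween-20. Steps lasted 0.8–1.5 h (lowest) to 10–20 min (highest). Titrations ran without input, with 200 uM small-molecule ligand, or with an oligonucleotide input. Normalised cluster fluorescence was curve-fitted, and apparent KD is the per-design median over clusters.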

[1] = Eterna round: R95, input ligand: microRNA oligo, concentration not stated
[2] = input ligand: microRNA oligo, concentration not stated
[3] = Eterna round: R95, input ligand: FMN 200 uM
[4] = Eterna round: R95, input ligand: none

Sequence | apparent KD of MS2 coat protein [1] [nM] | apparent KD of MS2 coat protein (input ligand: FMN 200 uM) [nM] | apparent KD of MS2 coat protein (input ligand: none) [nM] | further results
GACAAGGGAGGAUAUGCACAAGGGAUAUCUGACAUGCCGUUACAUGAGGAUCACCCAUGUAGAAGGCCCGAAUA [Didiin] (puzzle: Exclusion 2) | 13.3 |  |  | 
CGUGCGUAUGUGAGGAUAUGCUGGUCCUUGGAUCGGCAGAAGGCACAUGAGGAUCACCCAUGUGGUGUCGUCCA [salish99_Bmod_ex4_089] (puzzle: Brourd's mod of Exclusion 4) | 85.7 |  |  | 
GCACGAAGUGUAGGAUAUCUGUGCGAUUAGCUCAGAGAAGGACACAUGAGGAUCACCCAUGUGUUCCACGGAAACGAAACGUGC [Eli exng1 - 053] (Eterna round: R96, puzzle: Exclusion NG 1) |  | 9.14 | 11.9 | apparent KD of MS2 coat protein [2]: 8.47 nM
CUGAGCAGACGGAGAUCCAACAUGAGGAUCACCCAUGUCUCAUAAGCUUUUUGCUCAUCUUAUUGUACCUUGGUGCU [JL ViennaUCT Edcesobi mod 3] (puzzle: Sensor v3, turn-off variant 1) | 14.4 |  |  | apparent KD of MS2 coat protein [3]: 275 nM; apparent KD of MS2 coat protein [4]: 323 nM
UCGGCGCGAGGAUAUACGUUUGCUUUUUUUCGUUUUUGUGUACAUGAGGAUCACCCAUGUAGAAGGCGCGCCGC [Apr-15 SS2-20] (puzzle: Exclusion 2) | 14.6 |  |  | 
AUGUGGGUAUGAAGGUGUAGAUAGAGCGUACGUUAUGGAACAUGAGGAUCACCCAUGUAGCUUUUUGCUCGUCUUAU [JR_SV3TOV2_Sub034] (puzzle: Sensor v3, turn-off variant 2) | 40.9 |  |  | apparent KD of MS2 coat protein [3]: 36.8 nM; apparent KD of MS2 coat protein [4]: 40.4 nM
AUGGGUCCUCACGGAGCUACAUGAGGAUCACCCAUGUGUAUUGAGGAUAUCCACUGCCGAGGGCUGGAGAAGGCAGUGUACUGU [Ex NG3 #92] (Eterna round: R96, puzzle: Exclusion NG 3) |  | 124 | 108 | apparent KD of MS2 coat protein [2]: 89.3 nM
UUUAUAUAGUAAGGAUAUGUAUUAUUUUUUACAACAGAAGGUACUGACAUGAGGAUCACCCAUGUUUUAGUGUGGGCAUGUAGU [JMF's solution 100] (Eterna round: R96, puzzle: Exclusion NG 1) |  |  |  | apparent KD of MS2 coat protein [2]: 217 nM
ACUUCACAUGAGGAUCACCCAUGUGAGGAUAUCGUCGAGGAUGUAAUGCCAUCCGUGGCGAGAAGGCGCAUGGG [Exclusion 1 (Mod1.1 solution 40 by Eternabot)] (Eterna round: R97, puzzle: Exclusion 1) |  | 28.5 | 79.8 | 
GAUCCACAUGAGGAUCACCCAUGUGAGGAUAUGAUACUAUGUACUUCGGUACAUAGUAUCAGAAGGCACAUUGA [Ex1-3: 45] (puzzle: Exclusion 1) | 136 |  |  | 
CCAGGCUGUGUGAGGAUAUGCUGGUCCUUGGAUCAGCAGAAGGCACAUGAGGAUCACCCAUGUGAAGAGCUUGG [JL bmx4 3.23] (puzzle: Brourd's mod of Exclusion 4) | 15.6 |  |  | 
UGUUCGUCAGGAUAUUCUACUUAUUACAUGAGGAUCACCCAUGUGUAUGUACAAGGGUGUGAAGAAGGGACUUGUC [LRO-Excl5-07-mod A17d by Omei] (Eterna round: R97, puzzle: Exclusion 5) |  | 331 | 1240 | 
UUUCGGCGGACCGUGGCUUUUUGCUCGUCUUAUGCUACGACAUGAGGAUCACCCAUGUGGUGGUGGUCCGUUGUUGU [Grok-var2-11 mod JAL] (puzzle: Sensor v3, turn-off variant 2) | 10.4 |  |  | apparent KD of MS2 coat protein [3]: 59.7 nM; apparent KD of MS2 coat protein [4]: 39.7 nM
